Consider 13 sequences from a protein production outcome set (Wang et al. 2014).

This series in a line: label from the status in PepcDB records.
As for “MPQDVMTANHVSPSNDAAAPSALDLARNQRLSLMDLLSVSEALNAAGQQAAAAELYKTWVAFNDNNPTIHLAYFNYAVMLNQLGDRAGAVQAFRACLKANPEFAPGHINLGRALEDAGLIGHAVEQWSHYAEVTKNVDAETIGHRHMTLQNMGRVLEGAGKLEEAETALLQAFELRPELPEAGQHWASLRQRQCKWPVLAPSNHISPRKMLDAMSSLTLSCYADDPMFQLAKAYRLSKTLIGARPDLSRFPRRSPKQKSGTGQRLRVGYLSSDLRDHAVGFALCEVLELHDKDSLEVFAYYCGNVRGTDSTQERIKAAVHCWRDIHGVDDATAASQIIADEIDILIDVNGYTKDARAKIFAYRPAPVIVSFCGYPGSMGSPFHQYLISDGYMIPPENEIYYSEKVLRIACDQPLDRKRPVAARPSRADVGLPEDAFVYASFNGMQKITENCFARWMTILSETPGSLLWLLTGDDDVNQRLRDLAEKSGVASERLVFAPKAQNPQHIARIGLADLFLDTFPYGAHSTASDAITSGLPVLTMYGKTFAARFCGSIVTAAGVPEMICSSPEDYVARAIGFERDRQSLLEVRESIARQRETSVLRDIPALARRLEELFWQMQGECERGETPVPDLSNLDIYYEAGAEALLENIEFEDEQSYRERYLKKLRQWHDYAPIPYDRRLWQNPDN”, the protein production entry was “failed”. Under “MPQPRRSTGSKLTYRPVGYVNAMSEQDEVPSEDRRKYEFRKVIEELKDYEGSGTQLVTIYIPPDKQISDVVAHVTQEHSEASNIKSKQTRTNVQDALTSIKDRLRYYDTFPPDNGMVVFSGAVDSGGGRTDMVTEVLESPPQPIESFRYHCDSAFLTEPLAEMLGDKGLYGLIVLDRRESNVGWLKGKRVQPVKSAESLVPGKQRKGGQSAQRFARLRLEAIDNFYQEVAGMADDLFVPKRHEIDGILVGGPSPTKDEFLDGDYLHHELQDKVLGKFDVSYTDESGLSDLVDAGQAALAEADLMDDKSDMEEFFEELNGGKLATYGFEQTRRNLIMGSVDRLLVSEDLREDVVIYECPNDHEEYETIDRRNTSPEHTCSDCGEEATEVDREDAIDHLMSIADQRGTETHFISTDFEKGEQLLTAFGGYAGILRYSTGV” stands “failed”; under “MPRASISDTIPMTMASIDAGSVRFTARADKRHLNPLGGVHGGFAATVLDSVTGCAIHSILEAGVGYGTVDLSVKRVKAVPEDTPLVAEGRVLHVPCAIGSQRADLMLAPPRLGRDRRCPAGLEHHHHHH”, “failed”; under “MPRFSTACLDWESRIVNRESLIPFAPLFPTEAEAALDVFKSLQITDLPQVYDRKLGRHRHPTFGESCEQYVFDFVSAIFGAYDEESAKRVIEEFFLLISKKNIKSTLAAGIMLTALIRNWRHNQELLILAPTQEVAGNSFNPAASMVAADPDLTILLHVNKNTKEITHTLTKAVLKIVSADSNTAAGKKAAFVLIEELWLFGKKANAAAMLQEATGGLISRPEGFVIYITTQSDEPPAGVFKEKLDYFRDVRDGKIDDPTSLGVLYEFPDPMIDNEAYLDPANWYVTNPNMGRSVRKDWLERKLLKIQSGEDEEGDTWQSFLAKHLNVEIGMRQRGNRWPGANYWERAADPELAVLDHFAALDRFLERSEVVVVGVDGGGLDDLFGLTLVGREPDEIEIPVMVNGRESLVKMKRWLTWSHAWCHRDVLKRRKKIAPVLTDFDKAGHLTIVDAALEDLASIVDIIGTVKASGLLSSVAVDPAGLGEFVDALASPEIDITQENGLLVGVPQGFALMNAIKTAERRLSNGMLRHAGGPLMPWCVANLKIEPTATAIRATKQTAGDAKIDPAMALFDAVTMMVKNPEAPIASVYAERGIRVV”, “failed”. Under “MPRLARSLPLLLGLGLAAWAGATDGPLPVPADGVKLEAPTTASPSIRLVIPAEEIERRALAEYRQIIDNAAREGALAPDSVPDLARIRAIVQRLVPHAPRWNPDAAHWQWEVNLIGAAQVNAFCMPGGKIAVFSGLLERFRLTDDELAMALGHEIAHALREHARARAGQREITNLGANVISQLFGFGNRGDAGFGEGAKMHLLAFSRAEETEADLIGMDIAARAGFDPRAALTLWQKMGSIGGAEQKQFLSTHPSGRSRMTVLSRHLPETLPLYADALRMPMAKLPEYRSNMQYLGAAPVDNGDEAPMRPMVQQ” stands “failed”; under “MPRRDLLDLLALAAVWGGSFLFMRVAVPEFGPAALMELRVGLAALFLLPLALWRGKPALIARHWKAILVVGTLNSALPFLLYAYAAQSLGAGFLSVANAVTPVWGAVIGWLWLGDRLPRMRALGLLISLSGIIVLVWDKLDFHDGGTGPAVLAAISAPVFYGMAANWTKRYLGHVDALTNATGSMVAASLVLAPLAIIHWPEQAVSFEAWRATVLLAIVCTGAAYIVFFRLIARVGPTAAVSVTFLVPVFGVLWGVWFLDEAVTPRILAGAGVILVGTALALGLVGARRVAAAD”, “failed”; under “MPRRRVETRRVDHDPGKRTLLLSPVLPLPTMRTCALALLTILLGAPAHGQSTDGPWTIDHVLTQRSLTDVDIGPDGNRVLWVKETPDPEADETTSDVYLTYRDDPHGDSTATLQLTRTGDNRAPRWSPDGEHIAFLSSREQEDAAESSGTQIWRLDPRGGAPEVITSVEHGVQGARWLDDDRLLFTAREQNTRYEQHLEQTEDDADVIEDTTLFRPVRLFTVHVGTGEVTRVTNNDHQIGEFAPSPNGSRVVYSLSDSPITADARNQPHQFLLNLNTGATTEIFDEQYVDPSNFQWTADGAGFYATDSYSSDPEHEGAGITKLYHYDLAARDYQEVPLEWGDKGVGYGGYTVVDGGLHVQLADGPTFEPRFYRKTSDGWAPAEVADERLEHASAFTAGPDGETVVFSHSTADTPPSYRVGTYREGALQRDETLTTLNENLDDLPIPRAEVVRWTGANGETVNGILHYPLDYDPDRAYPMMTVLHGGPSGVDLDAWSLGWTVYAPLLAQRDAFVFRPNYHGSGHHGLDFVESIKGKYYELEVPDIVSGIDSLAAAGVVDKDSLGVMGWSNGAILTTQLTIEHPELFQVAAPGAGDVNWTSDYGNCAFGVRFDRSYFKGAPWTYTEHYIEKSPLFEMPKVQTPTLIHHGTEDRAVPYEQGWEYYRALQQIGNAPVRFLSYPGEPHGLRQLSHQRRKVAEDLKWIDTYLFGETSMQERVSERLLADDAPLSLLETAEAPARTDGHYGVRANGTLVPETVTLGDTLTVGRFEVTRAQFRAYDADFEVPSGTAEYPAHGLAADRAQAYVDWLSEQTGRDYRLPTAAELAALKAARAGPSENTPAYWAGFTPTPDEYRRLRARLAQHPTEALLMPVGSRPAGHGPNGGGPLIYDVDGNVAEWARTADGIEAQNASALTLKDPKAETAPTPPRRVTGLRVVLDR”, “failed”. As for “MPSDGLPKNLEPLAAGDPATIGPYVLVGRLGSGGMGTVYLGRAPEKGTHVAIKVIRPELAFDEATRARFRDEMENARKVASFCTAKVLDHGTFQNRPYMVTEYIAGTALAEHIAEHGPLDSGTLHGFALGVAAALAAIHKAGLVHRDLKPANVLLSLSGPRVIDFGIARALNTSTSHTQTGIVMGSPGWMAPEQLLEEKVTTKADIFAWGCLVAFAGNGRHPFGNGDAMTLGKRMLFAEPDIGNLDPPLDRLVARALAKDPDQRPTAQELLLELAGGTDSNDTNDVVSHALHQSWRPNFPPMPPGYPPPSPQAHSGMPGPQAQAQAPGQTTIAPQPYAHPQQGGPGPMPPQAAGPQGGPQGGPQSPPMPQRPGPQASHHTGQIPVVPPTTGRQPPRSPAAQGSSGGPQARPYVPPNTLPPHRPLRPDSSRSRLLIVFAVLGAVLLAVVLVFGLVFFQDWFSSTSDTNPPGQGQEQQSSAPKEDPDDESDKSDTQAADPQAGESLRFDLLDWYCGNQVLDRPLIVNGGEYCVAEIEAHNSANYPVKFRHDLQILAHASGEQTKADAPLHGEGADPLWAGPIQPGDTVRGYLVFIVHSELTPEVLILRSTVDSPGQQIEIPSGQPA”, the protein production entry was “failed”.

For “MPSDNTYIRFRQQQRDPLHVNSPVSAGNISGVQGSGSRHPPSPPTPTTQPSVNHSDAQAERLNNLTLDELLDSPGRAGLTRLDPKRPLATLWFDDDSTVAATVRSIFERDFKEPHANWSQTSKATIDRWYETFAQVYNWDRSINKRVRVEFEAKLNSRMSDQVSRWKGNWKEKGDEAKPKWIDPEGIYKHCSGQTSYKARARKRCEKTGETTPDFLELLDETHRKADGTFIDGKSEEIYKKVTSRIEEEESHMCSGDNPESTGSCGLSVHAKNKIFVEVAPRKKGRIYGVGSLQFEAFSAHSGSTLPSDDPVILSQKLAAAEACIQSQAEKINSFDILFDYLADKDPALAAILRRGSSTQTGPASANEAPVATAPEQQVANEETAAATLANLATGSSPSSIF”, the protein production result is given as “failed”. Under “MPSFDIVSEITLHEVRNAVENANRVLSTRYDFRGVEAVIELNEKNETIKITTESDFQLEQLIEILIGSCIKRGIEHSSLDIPAESEHHGKLYSKEIKLKQGIETEMAKKITKLVKDSKIKVQTQIQGEQVRVTGKSRDDLQAVIQLVKSAELGQPFQFNNFRD” stands “not failed”; under “MPSGQALRISRTCRLNAHPRFDRLWRSPTPIQVSAMIVAFRLFLACLGLFLCLSSPLAAQVSLYSGIAGTSDESAGGDLAEAIRAASEAGASVIVIDSAGRVAAAGTEAGAVETARVDPMGEASQLMKAQEKVSDFIGALRSRLEALPYSIFEVQYILRQTSPDGRIATYAEVLAINLVLLLIGRWMSIEIYGKRIARKHVVSRIREAPRGYREKMPFLVFRFVMGVGATLFAMVFAFIIGFLIFGPMQDLSIQFTVTAIFTAYFLARTASDLWRMVLSPYLSQYRLPPFSDRDAKRLYLWASLLATYDISSELFSTWVADFGLNYNVYAMVYGVLTGVGALGNVLMVLFNGRAISNAIRGGRTKDEVSWILRLVSVAWAPVVLFYMVFGWLQLAFDLVLERPVHIPLMAGTYGIFMSVVVAYGAMNYLLERYFDRTRQVKELNAALAEAEAAEDLSMTGVSAQRHHIATFEDLARRVAGILAFVVGTYALVLIWNPEMDWTGDLPIDRALDVMVIIFLGYIVFHFFRIWIDSKIAEETVDVPEGELGDEGGGTSASRLATLLPLFRGAILAVVVVSIVLIALMEVGINVSPLFAGAGVVGLAVGFGSQTLVRDIFSGAFFLVDDAFRKGEYIDIGDVKGTVEKISVRSFQLRHHLGALHTIPFGEIKVLTNFSRDWVIMKLPLRVTYDTDVEKVRKLIKNLGQELLSDPVIGDNFIQPLKSQGVIEMQDSAMIIRVKFMTKPGDQWLVRKRVYQDIRELFAREGIKFAHREVTVRLADGQEAAKMTPQQREAVTGAVQAAIDEDVLDDMMDDDR”, “failed”.

As for “MPSIIEAKHQGQKQSKNELKQARQSVIEQIQDLVPSSTVTHEYDFLFSGFALELPAHQIPSILGIDGVHAVYPNIEYEVETDFDEVVIEKDAYSPEMLDSAPFIGANDAWEAGYTGEGITVAILDTGVDYTHPDLVHAFGDYKGWDFIDNNDDPQETPPGDPRGIETTHGTHVAGTVAANGLIKGVAPDANLLAYRVLGPGGRGSTAGVIAGIERAVQDGADIMNLSLGNTLNDPDFATSIALDWAMAEGVVAVTSNGNSGPNNWTVGSPGTSRDAISVGATRLPYNKYKASVFTSDGIDYPSADIMGFPSDEELLELDGETYEYAFAGLGKPGDFEGVDVEGKIALIVRGEIPFVEKAENAKAAGAVGAIIYNNVAGVQPTVPGLAIPTIMLSNEDGLKMRNELENGQNTVTFSIEFDKLVGETVADFSSRGPVMHTWMIKPDVSAPGVAIVSTIPTHQPDDPYGYGSRQGTSMASPHVAGAAALLLEAHPNWGVDHVKAALMNTAENLVDENGNRYPHNTQGAGSIRIVDAIESETLVTPGSHSFGTFTKERGKQVERQHFTIHNLSNKRKTYQFDVQFAGNPDGIKVKTSKNLRVQPGKTQKINFNVQVDARKLDPGYYEGTIIVSDGSQTVEVPTILFVSEPDYPRVTTFDLDIDENGVLFGSAYLPNGAEEFGLWIYTRDTLEYVTSAAVVQNIGKGYHDVTWDTTELAPGRYYVFAYAERLGKTDFVLGDEIVVKLEHHHHHH”, the protein production entry was “failed”. Under “MPSLGCCYIMGGTVLWAIAAELFFESMNLITWLADFSRGHCVGICAALVPSILLWTTICAVLIALGQPRWSVNTAYVATLTVCGVMVLHVASWFSIGVITPVTFILLGLSLSCGSLATLFWRYSSQWQKFCHSGLRETIKAKWPQTLKI” stands “failed”.
